Where a chain is given by its changes, count along the chain named. Numbers in names are those of the source.
B1: chymase C22S/V138L/A226R (enzyme)
chain: IIGGTESKPHSRPYMAYLEIVTSNGPSKFCGGFLIRRNFVLTAAHCAGRSITVTLGAHNITEEEDTWQKLEVIKQFRHPKYNTSTLHHDIMLLKLKEKASLTLAVGTLPFPSQFNFVPPGRMCRLAGWGRTGVLKPGSDTLQEVKLRLMDPQACSHFRDFDHNLQLCVGNPRKTKSAFKGDSGGPLLCAGVAQGIVSYGRSDAKPPRVFTRISHYRPWINQILQAN
B2: chymase C22S/S218I/A226R (enzyme)
chain: B1 chain with L125V, S201I
B3: chymase C22S/S189T/A226R (enzyme)
chain: B1 chain with L125V, S176T
B4: chymase C22S/L160V/S189T/A226R (enzyme)
chain: B1 chain with L125V, L146V, S176T
B5: chymase C22S/F173Y/A226R (enzyme)
chain: B1 chain with L125V, F157Y
B6: chymase C22S/L99H/F173I/K192R/Y215K/R217T/S218I/A226R (enzyme)
chain: B1 chain with L86H, L125V, F157I, K179R, Y198K, R200T, S201I
B7: chymase C22S/K192R/A226R (enzyme)
chain: B1 chain with L125V, K179R
B8: chymase C22S/F41R/L99G/G151T/F173Y/Y215R/R217M/A226R (enzyme)
chain: B1 chain with F29R, L86G, L125V, G137T, F157Y, Y198R, R200M
B9: chymase C22S/F41R/L99H/G151T/F173Y/Y215K/R217M/A226R (enzyme)
chain: B1 chain with F29R, L86H, L125V, G137T, F157Y, Y198K, R200M
B10: chymase C22S/F41V/L99H/G151R/F173L/Y215R/R217T/A226R (enzyme)
chain: B1 chain with F29V, L86H, L125V, G137R, F157L, Y198R, R200T
B11: chymase C22S/F41V/L99W/G151L/F173K/R217S/A226R (enzyme)
chain: B1 chain with F29V, L86W, L125V, G137L, F157K, R200S
B12: chymase C22S (enzyme)
chain: B1 chain with L125V, R207A
B13: chymase C22S/F41V/L99F/G151R/F173K/R217S/A226R (enzyme)
chain: B1 chain with F29V, L86F, L125V, G137R, F157K, R200S
B14: chymase C22S/A226R (enzyme)
chain: B1 chain with L125V
B15: chymase C22S/F41I/L99W/G151L/F173K/R217S/A226R (enzyme)
chain: B1 chain with F29I, L86W, L125V, G137L, F157K, R200S
B16: chymase F41V/L99H/G151V/F173Y/Y215K/R217G/A226R (enzyme)
chain: B1 chain with S7C, F29V, L86H, L125V, G137V, F157Y, Y198K, R200G
B17: chymase C22S/F41R/L99Y/G151T/F173K/R217S/A226R (enzyme)
chain: B1 chain with F29R, L86Y, L125V, G137T, F157K, R200S
B18: chymase C22S/F173Y/D175N/A226R (enzyme)
chain: B1 chain with L125V, F157Y, D159N
B19: chymase C22S/L99Y/F173Y/K192R/S218L/A226R (enzyme)
chain: B1 chain with L86Y, L125V, F157Y, K179R, S201L
B20: chymase C22S/L99H/F173Y/K192R/S218L/A226R (enzyme)
chain: B1 chain with L86H, L125V, F157Y, K179R, S201L

These binders were tested against Human Factor B (human) (UniProt P00751) (assay: cell-based or functional assay).
Sequence of Human Factor B (human) (P00751 26-764 limits assumed): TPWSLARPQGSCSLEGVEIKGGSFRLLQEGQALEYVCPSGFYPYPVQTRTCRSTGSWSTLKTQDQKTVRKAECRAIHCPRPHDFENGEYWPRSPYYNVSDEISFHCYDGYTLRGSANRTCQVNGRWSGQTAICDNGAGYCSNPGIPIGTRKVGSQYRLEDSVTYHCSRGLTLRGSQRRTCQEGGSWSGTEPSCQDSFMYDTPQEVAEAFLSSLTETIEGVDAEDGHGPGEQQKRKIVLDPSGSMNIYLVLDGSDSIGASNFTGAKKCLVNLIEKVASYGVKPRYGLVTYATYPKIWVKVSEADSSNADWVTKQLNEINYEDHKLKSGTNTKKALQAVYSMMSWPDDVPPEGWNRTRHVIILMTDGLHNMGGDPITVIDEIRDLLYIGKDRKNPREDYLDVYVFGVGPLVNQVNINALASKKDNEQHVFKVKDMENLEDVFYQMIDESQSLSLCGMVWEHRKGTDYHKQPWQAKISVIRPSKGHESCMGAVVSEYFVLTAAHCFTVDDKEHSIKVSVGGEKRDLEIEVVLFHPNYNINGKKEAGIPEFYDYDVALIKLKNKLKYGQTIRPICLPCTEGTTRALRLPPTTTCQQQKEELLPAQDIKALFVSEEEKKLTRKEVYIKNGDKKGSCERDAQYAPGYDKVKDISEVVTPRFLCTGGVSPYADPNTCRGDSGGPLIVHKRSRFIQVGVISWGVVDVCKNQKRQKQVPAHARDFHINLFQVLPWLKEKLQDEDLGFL

Row | fB Cleavage EC50 | fB Cleavage, 80% plasma EC50 | Binder
1 | 3.48 µM |  | B1
2 | 0.83 µM |  | B2
3 | 7.98 µM |  | B3
4 | 6.64 µM |  | B4
5 | 0.65 µM | 21 µM | B5

These binders were tested against EGVD/AE-ACT (assay: reaction of the protease with the serpin bait EGVD/AE-ACT).

Row | Binder | k*app (second order rate constant)
6 | B6 | 1040
7 | B7 | 147
8 | B8 | 773
9 | B9 | 1500
10 | B10 | 1130
11 | B11 | 1360
12 | B12 | 30.2
13 | B13 | 652
14 | B14 | 77
15 | B15 | 1730
16 | B16 | 649
17 | B17 | 684

These binders were tested against alpha-2-marcroglobin (A2M) (UniProt P01023) (assay: inhibition of the protease by the plasma inhibitor).
Sequence of alpha-2-marcroglobin (A2M) (P01023 24-1474): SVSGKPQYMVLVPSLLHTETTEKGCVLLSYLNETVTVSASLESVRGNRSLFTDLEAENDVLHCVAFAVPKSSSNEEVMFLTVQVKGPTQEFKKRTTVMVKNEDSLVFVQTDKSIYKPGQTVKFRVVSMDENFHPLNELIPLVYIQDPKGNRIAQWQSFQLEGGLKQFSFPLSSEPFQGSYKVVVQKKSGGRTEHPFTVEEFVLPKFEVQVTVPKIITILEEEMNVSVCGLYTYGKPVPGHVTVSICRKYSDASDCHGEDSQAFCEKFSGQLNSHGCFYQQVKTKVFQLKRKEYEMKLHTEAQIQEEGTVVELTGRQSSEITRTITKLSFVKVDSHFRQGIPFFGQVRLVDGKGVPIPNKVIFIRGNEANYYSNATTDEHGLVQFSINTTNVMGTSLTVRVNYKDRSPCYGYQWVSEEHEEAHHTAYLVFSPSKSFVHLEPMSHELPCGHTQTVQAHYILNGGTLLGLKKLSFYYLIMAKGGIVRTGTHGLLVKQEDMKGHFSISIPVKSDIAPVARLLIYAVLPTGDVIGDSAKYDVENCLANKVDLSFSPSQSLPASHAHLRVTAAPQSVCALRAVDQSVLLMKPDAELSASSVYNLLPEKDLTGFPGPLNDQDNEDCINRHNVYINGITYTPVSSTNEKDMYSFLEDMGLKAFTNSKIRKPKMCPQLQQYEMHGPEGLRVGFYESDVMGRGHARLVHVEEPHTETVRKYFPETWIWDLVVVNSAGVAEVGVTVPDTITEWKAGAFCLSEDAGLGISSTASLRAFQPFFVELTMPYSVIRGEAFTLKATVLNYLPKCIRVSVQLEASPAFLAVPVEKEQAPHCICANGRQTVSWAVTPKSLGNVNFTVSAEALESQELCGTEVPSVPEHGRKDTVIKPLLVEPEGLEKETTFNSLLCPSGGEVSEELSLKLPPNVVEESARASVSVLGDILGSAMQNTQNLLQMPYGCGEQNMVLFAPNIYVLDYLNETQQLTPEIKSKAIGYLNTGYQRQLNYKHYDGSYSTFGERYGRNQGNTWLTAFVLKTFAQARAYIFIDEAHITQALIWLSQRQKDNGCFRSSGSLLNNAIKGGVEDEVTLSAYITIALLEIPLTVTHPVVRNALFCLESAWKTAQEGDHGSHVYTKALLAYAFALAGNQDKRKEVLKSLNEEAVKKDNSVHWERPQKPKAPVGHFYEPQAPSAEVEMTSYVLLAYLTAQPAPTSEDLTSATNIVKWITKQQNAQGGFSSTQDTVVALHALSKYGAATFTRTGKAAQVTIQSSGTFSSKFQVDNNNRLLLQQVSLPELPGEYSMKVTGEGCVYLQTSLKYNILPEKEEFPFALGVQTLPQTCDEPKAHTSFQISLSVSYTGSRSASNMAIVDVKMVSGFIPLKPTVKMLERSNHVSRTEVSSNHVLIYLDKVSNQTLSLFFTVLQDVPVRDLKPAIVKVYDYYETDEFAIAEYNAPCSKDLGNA

Row | kapp | Binder
18 | 645 M⁻¹ s⁻¹ | B18
19 | 329 M⁻¹ s⁻¹ | B11
20 | 3130 M⁻¹ s⁻¹ | B19
21 | 356 M⁻¹ s⁻¹ | B20
22 | 812 M⁻¹ s⁻¹ | B14

Source: US20240117334A1, “FACTOR B PROTEASES” (Vertex Pharmaceuticals Incorporated, priority 2021, published 2024)
